Reference: the supplement of paper PMC9170038

Assays:
[1] = tested on: MS2 coat protein; test: apparent KD of MS2 coat protein, switch OFF state (with FMN for OFF switches, without FMN for ON switches); designed switch direction (-1 OFF switch, 1 ON switch): 1; higher = weaker reporter binding; conditions: FMN input: 0 or 200 uM; Eterna round: R93 (includes R88 designs)
How it was run: (§1)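 On-chip transcription from Illumina sequencing clusters produced the designed RNA switches. These were titrated with SNAP-549-labelled MS2 coat protein (twofold steps, 0.7 or 1.5 nM to 3 µM) in 100 mM Tris-HCl pH 7.5, 80 mM KCl, 4 mM MgCl2, with or without constant ligand. The apparent KD given is the per-design median of normalised cluster binding-curve fits.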

[2] = tested on: MS2 coat protein; test: apparent KD of MS2 coat protein, switch ON state; designed switch direction (-1 OFF switch, 1 ON switch): 1; higher = weaker reporter binding; conditions: FMN input: 0 or 200 uM; Eterna round: R93 (includes R88 designs)
How it was run: as §1

Question: “ACAAAGCUACACUAGGAUAUGGGUGUCUAAACAUGAGGAUCACCCAUGUGAUGGCAAAACAAAGCUCAGAAGGAGUCGUAGCCCA [Bientevece]” was tested. Which “apparent KD of MS2 coat protein” value [1] did it give?
Answer: Its value is 34.9 nM.

Question: And the “apparent KD of MS2 coat protein” value [2]?
Answer: The value was 15 nM.

Question: Which results are given for “ACCCGACAUGAGGAUCACCCAUGUAAACAAUCAUGAGGAUAUCCGGAGCAAAUGCUCAAGGGAGAAGGCAUAAAAG [Onrequus]”?
Answer: apparent KD of MS2 coat protein [1]: 132 nM; apparent KD of MS2 coat protein [2]: 29.5 nM

Question: With “ACUACACAUGAGGAUCACCCAUGUCAGGUCGGACUAGGAUAUUAUAAACCAGAGUAAAAAUAAGAAGGAGUAGAAA [JR_SS001_Sub309]” as the sequence, how does the “apparent KD of MS2 coat protein” value [1] read?
Answer: Its value is 29.9 nM.

Question: What about the “apparent KD of MS2 coat protein” value [2] of the same sequence?
Answer: Its value is 37.9 nM.

Question: Which “apparent KD of MS2 coat protein” value [1] does the source give for “ACUAUACAUGAGGAUCACCCAUGUCAGGUGGGACUAGGAUAUCAAAAGCCAGAGUAAGAAUGAGAAGGAGUAGAAA [JR_SS001_Sub304]” here?
Answer: The value was 69.3 nM.

Question: And the “apparent KD of MS2 coat protein” value [2]?
Answer: The value was 66.4 nM.

Question: Which “apparent KD of MS2 coat protein” value [1] does the source give for “AGAAAACAUGAGGAUCACCCAUGUAGGAAUAUGGGAGGAUAUACAGAGACGAAAGUCAGAGUAGAAGGCCUAAGAA [salish99-SS1-088]” here?
Answer: The value was 96.7 nM.

Question: What about the “apparent KD of MS2 coat protein” value [2] of the same sequence?
Answer: The value was 24 nM.

Question: “AGAAAACAUGAGGAUCACCCAUGUGAUAACAUGGGAGGAUAUACGAGGACGAGAGUCAAGGUAGAAGGCCUAAAGA [Garnet 72]” was tested. Which “apparent KD of MS2 coat protein” value [1] did it give?
Answer: Its value is 114 nM.

Question: And the “apparent KD of MS2 coat protein” value [2]?
Answer: Its value is 111 nM.

Question: For “AGAAAUAAAAGAGAGGAUAUCCAAAAGGGAACAUGAGGAUCACCCAUGUAAAUGAAAAUAAAAUGGGAGAAGGCUCAAAAUAAAG [80% More Helter Skelter 2]”, which “apparent KD of MS2 coat protein” value [1] is on record?
Answer: The value was 85 nM.

Question: What about the “apparent KD of MS2 coat protein” value [2] of the same sequence?
Answer: Its value is 54.6 nM.

Question: Which “apparent KD of MS2 coat protein” value [1] does the source give for “AGAAGGUGGGUCGAGGAUAUCAGGCACGCCACAUGAGGAUCACCCAUGUUUUUGGCACCGCCCAAUGAGAAGGUGAACACCUUCA [Cesobe]” here?
Answer: The value was 12.4 nM.

Question: What about the “apparent KD of MS2 coat protein” value [2] of the same sequence?
Answer: The value was 9.34 nM.

Question: With “AGAAUAAAAAGACAGGAUAUCCAAAAUAAAACAUGAGGAUCACCCAUGUAAAAAAAAUAAAAAUGGGAGAAGGGUCAAAAUAAGA [Mat - Same State 2 - JL mod - D63]” as the sequence, how does the “apparent KD of MS2 coat protein” value [1] read?
Answer: Its value is 31.9 nM.

Question: And the “apparent KD of MS2 coat protein” value [2]?
Answer: Its value is 18.8 nM.

Question: For “AGAGAUAACAGAGAGGAUAUCCAAUAGAAAACAUGAGGAUCACCCAUGUGAAAGAUAAUAAAAUGGGAGAAGGCUCACAAUAAGA [Topaz 42]”, which “apparent KD of MS2 coat protein” value [1] is on record?
Answer: Its value is 39.8 nM.

Question: And the “apparent KD of MS2 coat protein” value [2]?
Answer: Its value is 15.8 nM.

Question: Which results are given for “AGCCAACAUGAGGAUCACCCAUGUCAAACAAGUCAAGGAUAUGGGCCUCUAAAAGGAGUACCAGAAGGUGAGAAAU [Vequatge]”?
Answer: apparent KD of MS2 coat protein [1]: 52.6 nM; apparent KD of MS2 coat protein [2]: 123 nM

Question: “AGCUAACAUGAGGAUCACCCAUGUCCGCUAAACCAAGGAUAUGGGACGAAUAAAAUCGGACCAGAAGGUGGCCGAC [Qureaed]” was tested. Which “apparent KD of MS2 coat protein” value [1] did it give?
Answer: Its value is 222 nM.

Question: What about the “apparent KD of MS2 coat protein” value [2] of the same sequence?
Answer: The value was 218 nM.

Question: For “AGGAAACAUGAGGAUCACCCAUGUAAAAAUAUGGGAGGAUAUACAAAGACGAAAGUGAGAGUAGAAGGCCUAAAAG [Garnet 18]”, which “apparent KD of MS2 coat protein” value [1] is on record?
Answer: Its value is 124 nM.

Question: And the “apparent KD of MS2 coat protein” value [2]?
Answer: The value was 35.6 nM.

Question: Which results are given for “AGGAAACAUGAGGAUCACCCAUGUAAAGAAGGGUGAGGAUAUACAAAGAAAAGAAAGAAAGUAGAAGGCACAAAAG [Mongoose]”?
Answer: apparent KD of MS2 coat protein [1]: 113 nM; apparent KD of MS2 coat protein [2]: 233 nM

Question: How did the “apparent KD of MS2 coat protein” value [1] turn out when “AGGAAGGAGAGAGAGGAUAUCCAAAGGAAAACAUGAGGAUCACCCAUGUAGAAGGUAGGAAAUUGGGAGAAGGCUCAAGAGACAG [salish99-ss2-126]” was run?
Answer: The value was 49.5 nM.

Question: And the “apparent KD of MS2 coat protein” value [2]?
Answer: Its value is 16.8 nM.

Question: For “AGGAGACAUGAGGAUCACCCAUGUGAGAAGAGGCGAGGAUAUCGAAAGAAAGAAGAGAAACGAGAAGGCGCGAGCC [salish99-SS1-032]”, which “apparent KD of MS2 coat protein” value [1] is on record?
Answer: The value was 28.8 nM.

Question: And the “apparent KD of MS2 coat protein” value [2]?
Answer: Its value is 28.1 nM.

Question: For “AGUCAACAUGAGGAUCACCCAUGUCUGAGAGCAUGAGGAUAUCUAGAUGGGCAGCAUGAUAGAGAAGGCAUGCGCC [Biongear]”, which “apparent KD of MS2 coat protein” value [1] is on record?
Answer: Its value is 116 nM.

Question: And the “apparent KD of MS2 coat protein” value [2]?
Answer: The value was 173 nM.

Question: “AUAAAACAUGAGGAUCACCCAUGUAGAAAUAUGGGAGGAUAUACAAAGACGAAAGUCAAGGUAGAAGGCCUAAAAG [Mat - Same State 1 - Meechl mod - D118]” was tested. Which “apparent KD of MS2 coat protein” value [1] did it give?
Answer: Its value is 47.4 nM.

Question: And the “apparent KD of MS2 coat protein” value [2]?
Answer: Its value is 39.1 nM.

Question: “AUAAAACAUGAGGAUCACCCAUGUAGAAAUAUGGGAGGAUAUACUAGAUCGAAAGAUCUAGUAGAAGGCCUAAAAG [JL Mod of Eli 1]” was tested. Which “apparent KD of MS2 coat protein” value [1] did it give?
Answer: The value was 60.7 nM.

Question: What about the “apparent KD of MS2 coat protein” value [2] of the same sequence?
Answer: The value was 27.6 nM.

Question: With “AUAAAACAUGAGGAUCACCCAUGUCAACAAAGUCGAGGAUAUGGGCAAAUAAAAUAAGAACCAGAAGGCGAAUAAU [Teenbexe]” as the sequence, how does the “apparent KD of MS2 coat protein” value [1] read?
Answer: The value was 593 nM.

Question: And the “apparent KD of MS2 coat protein” value [2]?
Answer: The value was 32.2 nM.
